Laboratory results published in PMC5887309.

Target: DNMT3AC R882H (human, UniProt Q9Y6K1 612-912, R882H)
Experiment: fluorescence anisotropy

Chain of DNMT3AC R882H (Q9Y6K1 612-912 R882H): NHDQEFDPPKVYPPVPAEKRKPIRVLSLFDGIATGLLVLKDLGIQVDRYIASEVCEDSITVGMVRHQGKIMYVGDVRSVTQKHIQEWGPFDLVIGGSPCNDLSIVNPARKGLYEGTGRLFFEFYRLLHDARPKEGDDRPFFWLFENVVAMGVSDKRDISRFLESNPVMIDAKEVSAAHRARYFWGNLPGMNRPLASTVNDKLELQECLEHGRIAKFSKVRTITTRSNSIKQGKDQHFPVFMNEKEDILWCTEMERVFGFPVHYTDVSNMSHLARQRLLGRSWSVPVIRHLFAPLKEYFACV

B1: Cy5-labeled 29mer with two CpG sites (dsDNA)
DNA 1: ACTTGCAACGGTCCTAACCGTCACCTCTT
DNA 2: AAGAGGTGACGGTTAGGACCGTTGCAAGT
Kd: 0.209 ± 0.019 µM
